Experimental findings from US20160272693A1 (ZEALAND PHARMA A S, published 2016) are described below.

In the experiment the target is T1, human amylin receptor 3 (hAMYR3), hCTR2 co-expressed with human receptor activity modifying protein 3 (hRAMP3) (human, UniProt P30988 25-474; O60896 24-148).
T1 sequence (looked up) 1: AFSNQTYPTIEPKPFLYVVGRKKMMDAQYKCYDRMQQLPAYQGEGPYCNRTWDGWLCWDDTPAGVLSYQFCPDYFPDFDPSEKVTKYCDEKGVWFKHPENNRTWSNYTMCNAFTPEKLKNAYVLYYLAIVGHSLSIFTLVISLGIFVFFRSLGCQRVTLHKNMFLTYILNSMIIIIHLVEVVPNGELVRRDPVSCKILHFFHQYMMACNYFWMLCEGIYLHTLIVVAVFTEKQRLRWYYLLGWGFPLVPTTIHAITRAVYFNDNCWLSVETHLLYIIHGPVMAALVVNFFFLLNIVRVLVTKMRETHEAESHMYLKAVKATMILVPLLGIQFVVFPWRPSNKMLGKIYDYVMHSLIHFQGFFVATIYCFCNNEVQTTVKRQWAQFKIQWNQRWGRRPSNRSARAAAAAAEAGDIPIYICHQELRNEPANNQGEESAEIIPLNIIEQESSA
T1 sequence (looked up) 2: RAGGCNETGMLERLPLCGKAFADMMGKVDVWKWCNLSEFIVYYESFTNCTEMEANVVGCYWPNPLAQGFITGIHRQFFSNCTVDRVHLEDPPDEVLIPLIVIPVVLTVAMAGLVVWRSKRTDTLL
Kind of experiment: cell-based or functional assay.

*1 amine or outer side, *2 acyl side, *3 side chain or, on linkers, in order; H or OH if unused. Bridges are numbered along the chain shown (N, C = ends). [ ]: non-standard residue; d: D form. The star is where a group is joined. C20 diacid = O=C(O)CCCCCCCCCCCCCCCCCCC(=O)*; γGlu = O=C(O)[C@H](CCC(=O)[*:2])N[*:1]; Hyp = O=C(O)[C@@H]1C[C@@H](O)CN1; NMeI = CC[C@H](C)[C@H](NC)C(=O)O; Sar = CNCC(=O)O

B1: [19CD]-isoGlu-R-C( )-GTAT-C( )-ATERLADFLTRSSF-Gly(Me)-A-Ile(Me)-LSSTEVGSST-Hyp-NH2 (Compd. 41) (peptide)
peptide: {C20 diacid}-[γGlu]RCGTATCATERLADFLTRSSF[Sar]A[NMeI]LSSTEVGSST[Hyp]-NH2
modifications: disulfide 3-8
SMILES: CC[C@H](C)[C@@H](C(=O)N[C@@H](CC(C)C)C(=O)N[C@@H](CO)C(=O)N[C@@H](CO)C(=O)N[C@H](C(=O)N[C@@H](CCC(=O)O)C(=O)N[C@H](C(=O)NCC(=O)N[C@@H](CO)C(=O)N[C@@H](CO)C(=O)N[C@H](C(=O)N1C[C@H](O)C[C@H]1C(N)=O)[C@@H](C)O)C(C)C)[C@@H](C)O)N(C)C(=O)[C@H](C)NC(=O)CN(C)C(=O)[C@H](Cc1ccccc1)NC(=O)[C@H](CO)NC(=O)[C@H](CO)NC(=O)[C@H](CCCNC(=N)N)NC(=O)[C@@H](NC(=O)[C@H](CC(C)C)NC(=O)[C@H](Cc1ccccc1)NC(=O)[C@H](CC(=O)O)NC(=O)[C@H](C)NC(=O)[C@H](CC(C)C)NC(=O)[C@H](CCCNC(=N)N)NC(=O)[C@H](CCC(=O)O)NC(=O)[C@@H](NC(=O)[C@H](C)NC(=O)[C@@H]1CSSC[C@H](NC(=O)[C@H](CCCNC(=N)N)NC(=O)CC[C@H](NC(=O)CCCCCCCCCCCCCCCCCCC(=O)O)C(=O)O)C(=O)NCC(=O)N[C@@H]([C@@H](C)O)C(=O)N[C@@H](C)C(=O)N[C@@H]([C@@H](C)O)C(=O)N1)[C@@H](C)O)[C@@H](C)O
Regarding B1, the “hAMYR3 EC50 (nM); cAMP induction” value was found to be 0.34 nM.

B2: [19CD]-isoGlu-R-C( )-GTAT-C( )-ATERLAHFLNRSSF-Gly(Me)-A-Ile(Me)-LSSTEVGSSTP-NH2 (Compd. 35) (peptide)
peptide: {C20 diacid}-[γGlu]RCGTATCATERLAHFLNRSSF[Sar]A[NMeI]LSSTEVGSSTP-NH2
modifications: disulfide 3-8
SMILES: CC[C@H](C)[C@@H](C(=O)N[C@@H](CC(C)C)C(=O)N[C@@H](CO)C(=O)N[C@@H](CO)C(=O)N[C@H](C(=O)N[C@@H](CCC(=O)O)C(=O)N[C@H](C(=O)NCC(=O)N[C@@H](CO)C(=O)N[C@@H](CO)C(=O)N[C@H](C(=O)N1CCC[C@H]1C(N)=O)[C@@H](C)O)C(C)C)[C@@H](C)O)N(C)C(=O)[C@H](C)NC(=O)CN(C)C(=O)[C@H](Cc1ccccc1)NC(=O)[C@H](CO)NC(=O)[C@H](CO)NC(=O)[C@H](CCCNC(=N)N)NC(=O)[C@H](CC(N)=O)NC(=O)[C@H](CC(C)C)NC(=O)[C@H](Cc1ccccc1)NC(=O)[C@H](Cc1c[nH]cn1)NC(=O)[C@H](C)NC(=O)[C@H](CC(C)C)NC(=O)[C@H](CCCNC(=N)N)NC(=O)[C@H](CCC(=O)O)NC(=O)[C@@H](NC(=O)[C@H](C)NC(=O)[C@@H]1CSSC[C@H](NC(=O)[C@H](CCCNC(=N)N)NC(=O)CC[C@H](NC(=O)CCCCCCCCCCCCCCCCCCC(=O)O)C(=O)O)C(=O)NCC(=O)N[C@@H]([C@@H](C)O)C(=O)N[C@@H](C)C(=O)N[C@@H]([C@@H](C)O)C(=O)N1)[C@@H](C)O
Regarding B2, the “hAMYR3 EC50 (nM); cAMP induction” value came out at 0.11 nM.

B3: [19CD]-isoGlu-R-C( )-GTAT-C( )-ATERLAHFLNRSSF-Gly(Me)-A-Ile(Me)-LSSTEVGSFTP-NH2 (Compd. 40) (peptide)
peptide: {C20 diacid}-[γGlu]RCGTATCATERLAHFLNRSSF[Sar]A[NMeI]LSSTEVGSFTP-NH2
modifications: disulfide 3-8
SMILES: CC[C@H](C)[C@@H](C(=O)N[C@@H](CC(C)C)C(=O)N[C@@H](CO)C(=O)N[C@@H](CO)C(=O)N[C@H](C(=O)N[C@@H](CCC(=O)O)C(=O)N[C@H](C(=O)NCC(=O)N[C@@H](CO)C(=O)N[C@@H](Cc1ccccc1)C(=O)N[C@H](C(=O)N1CCC[C@H]1C(N)=O)[C@@H](C)O)C(C)C)[C@@H](C)O)N(C)C(=O)[C@H](C)NC(=O)CN(C)C(=O)[C@H](Cc1ccccc1)NC(=O)[C@H](CO)NC(=O)[C@H](CO)NC(=O)[C@H](CCCNC(=N)N)NC(=O)[C@H](CC(N)=O)NC(=O)[C@H](CC(C)C)NC(=O)[C@H](Cc1ccccc1)NC(=O)[C@H](Cc1c[nH]cn1)NC(=O)[C@H](C)NC(=O)[C@H](CC(C)C)NC(=O)[C@H](CCCNC(=N)N)NC(=O)[C@H](CCC(=O)O)NC(=O)[C@@H](NC(=O)[C@H](C)NC(=O)[C@@H]1CSSC[C@H](NC(=O)[C@H](CCCNC(=N)N)NC(=O)CC[C@H](NC(=O)CCCCCCCCCCCCCCCCCCC(=O)O)C(=O)O)C(=O)NCC(=O)N[C@@H]([C@@H](C)O)C(=O)N[C@@H](C)C(=O)N[C@@H]([C@@H](C)O)C(=O)N1)[C@@H](C)O
B3: the “hAMYR3 EC50 (nM); cAMP induction” value was determined as 0.19 nM.

B4: [19CD]-isoGlu-R-C( )-GTAT-C( )-ATERLAHFLQRSSF-Gly(Me)-A-Ile(Me)-LSSTEVGSFTP-NH2 (Compd. 39) (peptide)
peptide: {C20 diacid}-[γGlu]RCGTATCATERLAHFLQRSSF[Sar]A[NMeI]LSSTEVGSFTP-NH2
modifications: disulfide 3-8
SMILES: CC[C@H](C)[C@@H](C(=O)N[C@@H](CC(C)C)C(=O)N[C@@H](CO)C(=O)N[C@@H](CO)C(=O)N[C@H](C(=O)N[C@@H](CCC(=O)O)C(=O)N[C@H](C(=O)NCC(=O)N[C@@H](CO)C(=O)N[C@@H](Cc1ccccc1)C(=O)N[C@H](C(=O)N1CCC[C@H]1C(N)=O)[C@@H](C)O)C(C)C)[C@@H](C)O)N(C)C(=O)[C@H](C)NC(=O)CN(C)C(=O)[C@H](Cc1ccccc1)NC(=O)[C@H](CO)NC(=O)[C@H](CO)NC(=O)[C@H](CCCNC(=N)N)NC(=O)[C@H](CCC(N)=O)NC(=O)[C@H](CC(C)C)NC(=O)[C@H](Cc1ccccc1)NC(=O)[C@H](Cc1c[nH]cn1)NC(=O)[C@H](C)NC(=O)[C@H](CC(C)C)NC(=O)[C@H](CCCNC(=N)N)NC(=O)[C@H](CCC(=O)O)NC(=O)[C@@H](NC(=O)[C@H](C)NC(=O)[C@@H]1CSSC[C@H](NC(=O)[C@H](CCCNC(=N)N)NC(=O)CC[C@H](NC(=O)CCCCCCCCCCCCCCCCCCC(=O)O)C(=O)O)C(=O)NCC(=O)N[C@@H]([C@@H](C)O)C(=O)N[C@@H](C)C(=O)N[C@@H]([C@@H](C)O)C(=O)N1)[C@@H](C)O
As to B4, the “hAMYR3 EC50 (nM); cAMP induction” value stood at 0.22 nM.

B5: [19CD]-isoGlu-R-C( )-GTAT-C( )-ATERLAHFLVRSSF-Gly(Me)-A-Ile(Me)-LSSTEVGSSTP-NH2 (Compd. 38) (peptide)
peptide: {C20 diacid-γGlu}-RCGTATCATERLAHFLVRSSF[Sar]A[NMeI]LSSTEVGSSTP-NH2
modifications: disulfide 2-7
SMILES: CC[C@H](C)[C@@H](C(=O)N[C@@H](CC(C)C)C(=O)N[C@@H](CO)C(=O)N[C@@H](CO)C(=O)N[C@H](C(=O)N[C@@H](CCC(=O)O)C(=O)N[C@H](C(=O)NCC(=O)N[C@@H](CO)C(=O)N[C@@H](CO)C(=O)N[C@H](C(=O)N1CCC[C@H]1C(N)=O)[C@@H](C)O)C(C)C)[C@@H](C)O)N(C)C(=O)[C@H](C)NC(=O)CN(C)C(=O)[C@H](Cc1ccccc1)NC(=O)[C@H](CO)NC(=O)[C@H](CO)NC(=O)[C@H](CCCNC(=N)N)NC(=O)[C@@H](NC(=O)[C@H](CC(C)C)NC(=O)[C@H](Cc1ccccc1)NC(=O)[C@H](Cc1c[nH]cn1)NC(=O)[C@H](C)NC(=O)[C@H](CC(C)C)NC(=O)[C@H](CCCNC(=N)N)NC(=O)[C@H](CCC(=O)O)NC(=O)[C@@H](NC(=O)[C@H](C)NC(=O)[C@@H]1CSSC[C@H](NC(=O)[C@H](CCCNC(=N)N)NC(=O)CC[C@H](NC(=O)CCCCCCCCCCCCCCCCCCC(=O)O)C(=O)O)C(=O)NCC(=O)N[C@@H]([C@@H](C)O)C(=O)N[C@@H](C)C(=O)N[C@@H]([C@@H](C)O)C(=O)N1)[C@@H](C)O)C(C)C
Turning to B5, the “hAMYR3 EC50 (nM); cAMP induction” value worked out at 0.12 nM.

B6: [19CD]-isoGlu-R-C( )-GTAT-C( )-ATERLAHFLHRSSF-Gly(Me)-A-Ile(Me)-LSSTEVGSSTP-NH2 (Compd. 37) (peptide)
peptide: {C20 diacid}-[γGlu]RCGTATCATERLAHFLHRSSF[Sar]A[NMeI]LSSTEVGSSTP-NH2
modifications: disulfide 3-8
SMILES: CC[C@H](C)[C@@H](C(=O)N[C@@H](CC(C)C)C(=O)N[C@@H](CO)C(=O)N[C@@H](CO)C(=O)N[C@H](C(=O)N[C@@H](CCC(=O)O)C(=O)N[C@H](C(=O)NCC(=O)N[C@@H](CO)C(=O)N[C@@H](CO)C(=O)N[C@H](C(=O)N1CCC[C@H]1C(N)=O)[C@@H](C)O)C(C)C)[C@@H](C)O)N(C)C(=O)[C@H](C)NC(=O)CN(C)C(=O)[C@H](Cc1ccccc1)NC(=O)[C@H](CO)NC(=O)[C@H](CO)NC(=O)[C@H](CCCNC(=N)N)NC(=O)[C@H](Cc1c[nH]cn1)NC(=O)[C@H](CC(C)C)NC(=O)[C@H](Cc1ccccc1)NC(=O)[C@H](Cc1c[nH]cn1)NC(=O)[C@H](C)NC(=O)[C@H](CC(C)C)NC(=O)[C@H](CCCNC(=N)N)NC(=O)[C@H](CCC(=O)O)NC(=O)[C@@H](NC(=O)[C@H](C)NC(=O)[C@@H]1CSSC[C@H](NC(=O)[C@H](CCCNC(=N)N)NC(=O)CC[C@H](NC(=O)CCCCCCCCCCCCCCCCCCC(=O)O)C(=O)O)C(=O)NCC(=O)N[C@@H]([C@@H](C)O)C(=O)N[C@@H](C)C(=O)N[C@@H]([C@@H](C)O)C(=O)N1)[C@@H](C)O
As for B6, the “hAMYR3 EC50 (nM); cAMP induction” value came out at 0.07 nM.

B7: [19CD]-isoGlu-R-C( )-GTAT-C( )-ATERLAHFLERSSF-Gly(Me)-A-Ile(Me)-LSSTEVGSSTP-NH2 (Compd. 36) (peptide)
peptide: {C20 diacid}-[γGlu]RCGTATCATERLAHFLERSSF[Sar]A[NMeI]LSSTEVGSSTP-NH2
modifications: disulfide 3-8
SMILES: CC[C@H](C)[C@@H](C(=O)N[C@@H](CC(C)C)C(=O)N[C@@H](CO)C(=O)N[C@@H](CO)C(=O)N[C@H](C(=O)N[C@@H](CCC(=O)O)C(=O)N[C@H](C(=O)NCC(=O)N[C@@H](CO)C(=O)N[C@@H](CO)C(=O)N[C@H](C(=O)N1CCC[C@H]1C(N)=O)[C@@H](C)O)C(C)C)[C@@H](C)O)N(C)C(=O)[C@H](C)NC(=O)CN(C)C(=O)[C@H](Cc1ccccc1)NC(=O)[C@H](CO)NC(=O)[C@H](CO)NC(=O)[C@H](CCCNC(=N)N)NC(=O)[C@H](CCC(=O)O)NC(=O)[C@H](CC(C)C)NC(=O)[C@H](Cc1ccccc1)NC(=O)[C@H](Cc1c[nH]cn1)NC(=O)[C@H](C)NC(=O)[C@H](CC(C)C)NC(=O)[C@H](CCCNC(=N)N)NC(=O)[C@H](CCC(=O)O)NC(=O)[C@@H](NC(=O)[C@H](C)NC(=O)[C@@H]1CSSC[C@H](NC(=O)[C@H](CCCNC(=N)N)NC(=O)CC[C@H](NC(=O)CCCCCCCCCCCCCCCCCCC(=O)O)C(=O)O)C(=O)NCC(=O)N[C@@H]([C@@H](C)O)C(=O)N[C@@H](C)C(=O)N[C@@H]([C@@H](C)O)C(=O)N1)[C@@H](C)O
As to B7, the “hAMYR3 EC50 (nM); cAMP induction” value was 0.36 nM.
